Data reported in the supplement of paper PMC10266784.

B1: library; numbered along this chain (parent)
chain: MAAAAAAAAEQQSSNGPVKKSMREKAVERRSVNKEHNSNFKAGYIPIDEDRLHKTGLRGRKGNLAICVIILLFILAVINLIITLVIWAVIRIGPNGCDSMEFHESGLLRFKQVSDMGVIHPLYKSTVGGRRNENLVITGNNQPIVFQQGTTKLSVENNKTSITSDIGMQFFDPRTQNILFSTDYETHEFHLPSGVKSLNVQKASTERITSNATSDLNIKVDGRAIVRGNEGVFIMGKTIEFHMGGNMELKAENSIILNGSVMVSTTRLPSSSSGDQLGSGDWVRYKLCMCADGTLFKVQVTSQNMGCQISDNPCGNTH

Variants of: B1
Test: SGCB cell-surface expression functional score (HA stain, bin4 vs bin1, normalised to synonymous) (log10 ratio); higher = more cell-surface SGCB (functional)
Procedure, shortened: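 Codon-saturation libraries of HA-tagged, YFP-fused human beta-sarcoglycan were lentivirally transduced at MOI <0.1 into HEK293 cells stably expressing alpha-, gamma- and delta-sarcoglycan. YFP-positive cells were sorted after 72 hours, grown 5–7 days, stained on ice with Alexa Fluor 647 anti-HA, fixed, sorted into four 5% intensity bins and amplicon-sequenced. The functional score is the log ratio of highest-bin to lowest-bin variant frequency, taken as the median over codons and duplicate transductions. Synonymous variants were scaled per section to mean 0, SD 0.5.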

SGCB cell-surface expression functional score (log10) of substitutions, site by site:
K250: Q 0.65, V 0.37, C 0.5, T 0.83, D 0.83, R 0.59, S 0.33, W 0.02, I 1, N 0.48, M 0.98, L 0.54, E 0.06, Y 1.05, A 0.91, F 1.23, G 0.55, P -0.39, H 0.87
E252: Y 1.05, P 0.32, A 0.53, C 0.5, K 0.57, T 0.88, F 1.22, W 0.117, G 0.39, I 1.01, D -0.26, S 0.51, H 1.12, L 0.88, N 1.08, Q 0.64, R 0.34, V 0.88, M 0.8
L249: S 0.16, Y 0.23, V 0.75, C 0.2, A 0.55, P -0.41, Q -0.07, F 0.71, E -0.69, I 0.85, W 0.63, N -0.2, T 0, R -0.27, D -1.06, K -1.29, M -0.1, G 0.21, H -1.14
E248: N 0.44, M 0, W 0.116, V 0.52, K 0.73, L 0.48, Y 0.41, S 0.4, A 0.29, F 0.95, R 0.67, G 0.62, T 0.54, C -0.97, I 0.78, H 0.87, P 0.43, D 0.58, Q -0.13
N246: R 0.2, V 0.39, I 0.32, P 0.63, D 0.51, W -0.217, M 0.42, E -0.206, S -0.19, G 0.45, K -0.01, Y 0.19, L 0.49, H 0.84, C -0.02, T 0.94, A 0.82, F -1.49, Q 0.45
N253: H 0.8, L 0.96, F 0.83, S 0.59, E 0.76, Q 1.07, T 0.39, C 0.55, W 0.29, P -0.52, V 0.9, M -0.117, K 0.46, D 0.58, A 0.49, R 0.29, I 0, Y 0.45, G 0.43
G245: W 0.92, Y 1.09
S254: M 0.79, A 0.25, H 0.41, E 1.37, P -0.77, L 0.74, G 0.08, C 0.55, F 0.96, I 0.12, K 0.05, N 0.66, D -0.152
M247: I 0.34, Y 1.22, F 1.03, V 0.47, E -0.44, S 0.26, W -1.52, R -0.83, D -1.1, K -1.56, Q -0.04, T -0.51, H 0.26, A 0.65, G 0.38, C 0.91, L 0.8, P -1.08, N -0.35
A251: Y -1.33, P 0.04, Q -2.02, K -1.77, L -1.06, D -0.84, T 0.52, E -1.22, V 0.46, N 0.23, I -0.87, R -1.16, F -0.98, W -1.85, C 0.59, H 0.44, M 0, S 0.32, G 0.05
